This is an account of results in patent publication US20210032364A1 (NOMOCAN PHARMACEUTICALS, published 2021).

Test [1] deals with T1, recombinant HDM2 protein (GST tagged, Abcam, Cat. No. ab188727) (human, UniProt Q00987 1-491).
T1 construct: Bought protein, called full-length, about 83 kD with the tag; also called recombinant full-length HDM2 protein; recombinant HDM2-GST protein; not shown: GST tag at the N-terminus
Briefly: immunoblot. The protocol:
Western Blot: As for immunoblots, 1 μg/well of recombinant HDM2 protein (GST tagged, Abcam, Cat. No. ab188727) was separated on 8-16% sodium dodecyl sulfate (SDS) polyacrylamide gel and proteins were then transferred to polyvinylidene difluoride (PVDF) membrane. […] The membrane was then washed×3 times (10 minutes each) and incubated for 1 hour with corresponding HRP-conjugated secondary antibody (Goat anti-Mouse IgG (H&L), F(ab′)2 Frag Cross-adsorbed HRP (HRP-GaM F(ab′)2), ThermoFisher, Cat. No. A24524) diluted 1:5000 in 1% BSA-PBS. The membrane was then washed×3 times and incubated with Pierce ECL Plus Western Blotting Substrate (ThermoFisher, Cat. No. #32132) for 10 min before developing on a LICOR Scanner.
On the technique in general: Immunoblotting shows a protein as a band on a membrane.

Test [2] addresses T2, NMC-P2 peptide (human).
T2 construct: Peptide corresponding to amino acids 15-25 of HDM2
T2 peptide: TTSQIPASEQE
Briefly: peptide competition in cell-ELISA on intact MIA PaCa-2 cells. (ELISA stands for enzyme-linked immunosorbent assay.)

Test [3] deals with T3, NMC-P3 peptide (human).
T3 peptide: CPVCRQPIQMIVLTYFP
Briefly: peptide-ELISA, plate-bound peptide. The protocol:
(§1) Peptide-ELISA Methodology: 5 μg/ml of NMC-P1, NMC-P2 or NMC-P3 peptide antigen was dried onto a 96-well ELISA plate overnight. Plates were then blocked with 5% BSA in 1× phosphate-buffered saline (PBS) (100 μl/well) for 2 hours at room temperature. Microplate wells were then washed 5 times with 300 μl of ice cold lx PBS. […] After 2 hours, wells were washed 5 times with 300 μl ice-cold PBS/well and 100 μl secondary antibody (HRP-labeled Goat anti-Mouse F(ab′)2 H&L cross-adsorbed secondary antibody (HRP-GaM F(ab′)2), ThermoFisher, Cat. No. A24524) diluted 1:2500 to 1:5000 in PBS-1% BSA solution were added and the incubation continued at room temperature. After 1 hour, the wells were washed again 5 times with 200 μl of ice-cold PBS and 50 μL of the TMB Substrate Solution (1-StepTM Ultra TMB-ELISA, ThermoFisher, Cat. No. 34028) were added to each well and color was allowed to develop for 30 minutes at room temperature. The reaction was stopped by addition of 50 μL of stop solution (ThermoFisher, Cat. No. SSO4) to each well and absorbance of each well was read immediately for optical density (OD) at 450 nm.

Test [4] has as its target T3, NMC-P3 peptide. Briefly: competition peptide-ELISA, soluble peptide pre-incubated with the antibody. The protocol: as §1
The target of test [5] is T2, NMC-P2 peptide. Briefly: peptide-ELISA, plate-bound peptide. Here is the method:
as §1

The target of another test is T4, NMC-P1 peptide (human).
T4 construct: Peptide corresponding to amino acids 1-15 of HDM2
T4 peptide: MCNTNMSVPTDGAVT
Briefly: peptide-ELISA, plate-bound peptide. The protocol: as §1

T1 sequence (Q00987 whole entry): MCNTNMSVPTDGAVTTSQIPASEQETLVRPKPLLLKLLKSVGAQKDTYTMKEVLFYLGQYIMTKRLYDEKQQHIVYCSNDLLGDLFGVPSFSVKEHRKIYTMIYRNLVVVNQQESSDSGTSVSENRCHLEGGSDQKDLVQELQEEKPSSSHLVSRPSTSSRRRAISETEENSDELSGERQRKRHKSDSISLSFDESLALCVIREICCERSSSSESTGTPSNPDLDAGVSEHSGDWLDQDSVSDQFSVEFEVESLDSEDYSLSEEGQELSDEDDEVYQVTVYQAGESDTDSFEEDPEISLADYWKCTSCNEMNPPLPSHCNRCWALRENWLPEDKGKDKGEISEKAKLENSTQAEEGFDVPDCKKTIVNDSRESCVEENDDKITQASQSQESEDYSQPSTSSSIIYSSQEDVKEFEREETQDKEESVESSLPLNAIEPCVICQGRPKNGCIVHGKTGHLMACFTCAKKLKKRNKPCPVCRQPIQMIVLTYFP

B1: monoclonal antibody NMC-303 (antibody, V domains shown)
VH: QVQLQQPGAELVKPGASVKLSCKASGYTFTSYYMYWVKQRPGQGLEWIGGINPRNGGTNFNEKFKNKATLTADKSSTTAYMQLSSLTSEDSAVYYCTRSGYYAMDYWGQGTSVTVSS
VL: DIQMTQTTSSLSASLGDRVTISCRASQDISNFLNWYQQKPDGTVKLLIYYTSRLHSGVPSRFSGSGSGTDYSLTISNLEQEDIATYFCQQGNTLPRTFGGGTKLEIK
B1: the values for the binding result (in test [1]; in the test with NMC-P2 peptide [2]; with NMC-P3 peptide [3]) were “binds”, “no binding” and “binds”, respectively.

B2: monoclonal antibody NMC-103 (antibody, IgG1, V domains shown)
VH: EVQLQESGGGLVQPGGSLRLSCTTSGFTFTHYYMSWVRQPPGKALEWLGFIRNKAKGYTAEYSASVKGRFTISRDNSQSILYLQMNTLRPEDSATYYCARDIGDNWGQGTLVTVSS
VL: DIVMTQAAFSNPVTLGTSASISCRSSKNLLHSNGITYLYWYLQRPGQSPQLLISRVSNLASGVPNRFSGSESGTDFTLRISRVEAEDVGVYFCAQLLELPYTFGGGTKLEIK
In the case of B2, the binding result with NMC-P3 peptide [4] is on record as “no binding (tested: 10 µl/ml)”; in the test with NMC-P2 peptide [5] it was “no binding”; in the test with NMC-P1 peptide it was “binds”.

B3: monoclonal antibody NMC-204 (antibody, IgG3, V domains shown)
VH: EVQLQESGSVLVRPGASVKLSCKASGDTLSGSWMHWAMQRPGQGLEWIGEIHLNRGTTNYNEKFKGKATVTVDTSSSTAYVDLSSLTSEDSAVYYCARSPGFAYWGQGTLVTVSA
VL: GIVMTQAAPSVPVTPGESVSISCRSSKSLLHSNGNSYLYWFLQRPGQSPQLLIYRMSNLASGVPDRFSGSGSGTAFTLRITRVEAEDVGVYYCMQHLEYPFTFGSGTKLEIK
In the case of B3, the binding result in the test with NMC-P3 peptide [3] is “no binding”; with NMC-P2 peptide [5] it was “binds”; with NMC-P1 peptide it was “no binding”.
